B1: IIA1: parent mouse IgG1 class anti-α5β1 antibody shown to inhibit α5β1 integrin binding to fibronectin (antibody, V domains shown)
VH: MAVLGLLLCLVTFPSCVLSQVQLKESGPGLVAPSQSLSITCTISGFSLTDYGVHWVRQPPGKGLEWLVVIWSDGSSTYNSALKSRMTIRKDNSKSQVFLIMNSLQTDDSAMYYCARHGTYYGMTTTGDALDYWGQGTSVTVSS
VL: MDFQVQIFSFLLISASVIMSRGQIVLTQSPAIMSASLGERVTMTCTASSSVSSNYLHWYQQKPGSAPNLWIYSTSNLASGVPARFSGSGSGTSYSLTISSMEAEDAATYYCHQYLRSPPTFGGGTKLEIK
modifications: mus muscalus
B2: M200: chimeric IgG4 anti-α5β1 antibody derived from IIA1; generic name volociximab (antibody, V domains shown)
VH: B1 VH
VL: MDFQVQIFSFLLISASVIMSRGQIVLTQSPAIMSASLGERVTMTCTASSSVSSNYLHWYQQKPGSAPNLWIYSTSNLASGVPARFSGSGSGTSYSLTISSMEAEDAATYYCHQYLRSPPTFGGGTKLEIKDMSVDMSV
modifications: chimeric antibody
notes: chimeric IgG4 anti-α5β1 antibody derived from IIA1; generic name volociximab

Assays:
[1] = test system: VX2 cancer cells; assay: SCID mouse VX2 xenograft model; format: in vivo; details: SCID mice; 10 mg/kg intraperitoneally, 3 times/week for 3 weeks
Experimental: (§1) Immune compromised mice CB-17 SCID (strain C.B-Igh1/IcrTac-Prkdc) were obtained from Taconic Farms (Germantown, N.Y.). Studies were initiated using female mice between the ages of 6-10 weeks (˜20 grams in weight). Animals were pre-dosed with M200, IIA1, or control IgG intraperitoneally at a dose of 10 mg/kg one hour prior to VX2 inoculation (1×10^7 cells in Iscove's Modified Dulbecco's Medium) into the mammary fat pad. Dosing was continued for 3 weeks at a frequency of 3 times/week at 10 mg/kg. Tumor volume was measured twice weekly by caliper and calculated by π/6×length×width×height. Clinical and mortality observations were performed daily according to IACUC regulations.

[2] = test system: NW231 cells; assay: NW231 orthotopic xenograft in SCID mice; format: in vivo; details: 10 mg/kg intraperitoneally, 3 times/week for 3 weeks
Experimental: (§2) NW231 and LOX cells were grown as orthotopic xenografts in SCID mice and challenged with the anti-α5β1 antibodies M200 and IIA1 by intraperitoneal injection.
as §1, with “M200, IIA1” for “M200, IIA1,”, “mg/kg 1” for “mg/kg one”, “to NW231” for “to VX2”, “in IMDM)” for “in Iscove's Modified Dulbecco's Medium)”, “Dosing” for “Dosing was”

[3] = test system: LOX cells; assay: LOX orthotopic xenograft in SCID mice; format: in vivo; details: 10 mg/kg intraperitoneally, 3 times/week for 3 weeks
Experimental: as §2
as §1, with “M200, IIA1” for “M200, IIA1,”, “mg/kg 1” for “mg/kg one”, “to NW231” for “to VX2”, “in IMDM)” for “in Iscove's Modified Dulbecco's Medium)”, “Dosing” for “Dosing was”

[4] = test system: human NW231 tumors; assay: NW231 xenograft tumor establishment, IIA1 with DOXIL; format: in vivo, SCID mice; details: 24 days post-implant (control TIB ~425 mm^3)
Experimental: The following experiment was conducted in order to determine the efficacy of the anti-α5β1 integrin antibody, IIA1 in combination with the chemotherapeutic agent, DOXIL®, for preventing establishment of human NW231 tumors in vivo. DOXIL® is a liposome encapsulated formulation of doxorubicin HCl, a cytotoxic anthracycline antibiotic isolated from Streptomyces peucetius. The NW231 cell line originated from breast cancer and is considered a good model for studying treatments for breast cancer.
Four to six week old female SCID mice obtained from Taconic Farms and maintained in micro-isolator cages were inoculated in the mammary fat pads with 1×10^7 NW231 cells. Animals received either TIB control (n=20) or […] (n=20) at 5 mg/kg for the first injection at the time of tumor cell inoculation. Subsequent treatments were at 0.7 mg/kg per injection. DOXIL® treatment was commenced 5 days post tumor cell inoculation. Chemotherapeutic doses were at 4 mg/kg for the first injection and at 2 mg/kg for subsequent injections. Reagents were delivered by intraperitoneal injection for four doses. Tumor volume was measured twice weekly and clinical and mortality observations were performed daily according to IACUC regulations.

[5] = molecular target: mouse α5β1 integrin (Mus musculus, UniProt P09055+P11688); assay: species cross-reactivity of anti-α5β1 antibody; format: binding
Sequence of mouse α5β1 integrin (P11688 45-1053): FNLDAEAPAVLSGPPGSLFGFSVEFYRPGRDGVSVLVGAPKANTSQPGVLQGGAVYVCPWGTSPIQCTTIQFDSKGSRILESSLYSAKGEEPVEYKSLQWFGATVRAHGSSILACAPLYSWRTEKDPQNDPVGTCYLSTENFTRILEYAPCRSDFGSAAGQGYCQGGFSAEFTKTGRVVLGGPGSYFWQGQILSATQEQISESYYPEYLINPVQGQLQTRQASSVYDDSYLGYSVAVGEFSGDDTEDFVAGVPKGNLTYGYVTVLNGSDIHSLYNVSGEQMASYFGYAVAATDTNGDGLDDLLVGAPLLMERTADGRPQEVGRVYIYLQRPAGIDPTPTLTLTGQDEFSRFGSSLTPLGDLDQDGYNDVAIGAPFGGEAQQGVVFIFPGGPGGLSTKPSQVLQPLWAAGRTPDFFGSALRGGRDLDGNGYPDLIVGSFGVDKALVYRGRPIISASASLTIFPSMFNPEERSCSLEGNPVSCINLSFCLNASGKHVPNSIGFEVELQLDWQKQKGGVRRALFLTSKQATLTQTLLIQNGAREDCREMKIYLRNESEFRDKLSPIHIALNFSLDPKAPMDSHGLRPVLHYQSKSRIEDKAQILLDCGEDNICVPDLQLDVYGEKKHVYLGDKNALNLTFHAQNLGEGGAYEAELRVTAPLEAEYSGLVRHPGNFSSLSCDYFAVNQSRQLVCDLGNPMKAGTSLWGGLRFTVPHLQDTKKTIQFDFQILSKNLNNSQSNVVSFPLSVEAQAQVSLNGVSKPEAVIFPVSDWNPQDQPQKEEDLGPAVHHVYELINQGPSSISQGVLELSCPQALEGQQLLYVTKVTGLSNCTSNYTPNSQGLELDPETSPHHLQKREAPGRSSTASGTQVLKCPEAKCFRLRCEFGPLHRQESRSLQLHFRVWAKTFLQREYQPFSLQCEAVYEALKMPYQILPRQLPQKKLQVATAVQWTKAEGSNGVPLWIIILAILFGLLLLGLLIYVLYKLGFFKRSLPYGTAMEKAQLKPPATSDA
Sequence of mouse α5β1 integrin (P09055 21-798): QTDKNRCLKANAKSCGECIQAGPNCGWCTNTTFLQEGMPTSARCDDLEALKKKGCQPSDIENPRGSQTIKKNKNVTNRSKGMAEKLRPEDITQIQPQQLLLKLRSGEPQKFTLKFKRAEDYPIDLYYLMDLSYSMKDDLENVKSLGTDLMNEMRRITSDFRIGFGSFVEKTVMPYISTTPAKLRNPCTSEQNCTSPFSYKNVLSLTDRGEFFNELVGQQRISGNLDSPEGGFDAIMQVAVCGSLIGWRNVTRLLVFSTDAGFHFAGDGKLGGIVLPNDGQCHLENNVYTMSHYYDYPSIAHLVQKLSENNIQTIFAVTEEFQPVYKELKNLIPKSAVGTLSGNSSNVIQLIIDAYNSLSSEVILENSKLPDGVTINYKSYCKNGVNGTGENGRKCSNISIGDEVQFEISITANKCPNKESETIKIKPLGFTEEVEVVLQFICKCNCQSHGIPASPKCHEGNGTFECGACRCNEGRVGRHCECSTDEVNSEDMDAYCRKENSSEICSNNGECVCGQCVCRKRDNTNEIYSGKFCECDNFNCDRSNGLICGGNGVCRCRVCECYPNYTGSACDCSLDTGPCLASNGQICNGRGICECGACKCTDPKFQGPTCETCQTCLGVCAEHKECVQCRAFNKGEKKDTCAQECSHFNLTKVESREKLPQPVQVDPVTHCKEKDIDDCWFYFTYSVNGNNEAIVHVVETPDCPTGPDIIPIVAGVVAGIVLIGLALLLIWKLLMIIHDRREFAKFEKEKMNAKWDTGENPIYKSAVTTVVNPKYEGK

[6] = Phase I dose-escalation study: safety / adverse events; format: in vivo, human
Experimental: The dosing levels and schedule used in the study were as follows. M200 was administered to the 21 patients on days 1, 15, 22, 29, and 36. The dosing levels and numbers of patients per level were: 0.5 mg/kg (1 patient), 1.0 mg/kg (2 patient), 2.5 mg/kg (3 patients), 5.0 mg/kg (3 patients), 10.0 mg/kg (6 patients) and 15 mg/kg (6 patients). The dose was administered as an intravenous infusion over 1 hour. The first and second doses were separated by a two week period to allow sampling for single-dose pharmacokinetic data. The real-time PK measurements performed following the first dose were used to predict each patient's peak serum concentration following the fifth dose. If the predicted peak serum concentration following the fifth dose was <750 μg/mL, the patient received all 5 doses of M200. The remaining 3 doses were given weekly and followed by a 45-day evaluation period.
Adverse events were graded using the National Cancer Institute (NCI) Common Terminology Criteria for Adverse Events (CTCAE), version 3.0. Dose-limiting toxicity was defined as any Grade-3 or Grade-4 adverse event, excluding scheduled hospitalizations or elective surgeries. Grade-3 or Grade-4 adverse events thought to be unrelated to M200 were excluded where appropriate following a review with the medical monitor and regulatory agencies.

[7] = human, in vivo, 10 mg/kg
Experimental: The serum for measuring M200 concentrations was obtained immediately before and after the first dose, and at 4, 24, 48, and 168 hours after completion of the first dose. Serum samples for measuring M200 concentrations were also taken immediately before, at the end, and 4 hours after the completion of each subsequent infusion. These samples were split and aliquots assayed before the next dose and again at the end of the study: end of 1st dose, 168 hours after 1st dose, immediately pre-dose (trough) and immediately post-dose (peak) for the 2nd, 3rd, 4th and 5th doses. The serum levels of M200 were measured by ELISA.
The plasma concentration-time data of M200 from each patient was subjected to a PK analysis. The following parameters were included in the calculations: peak (Cmax) and trough (Cmin) levels, terminal phase half-life (T1/2 β), area under the plasma-concentration time curve (AUC), elimination clearance (CL), and volume of distribution (V). Summary parameters were computed across patients from each treatment group. Changes in the PK parameters as a function of dose and time were also evaluated.

[8] = test system: VX2 carcinoma; assay: M200 VX2 rabbit tumor efficacy study; format: in vivo
Experimental: Starting on Day 5, tumor dimensions (Length, Width and Height) were measured in millimeters via electronic vernier calipers connected to a laptop computer at a minimum frequency of twice weekly. For consistency, the same trained technician performed the tumor measurements throughout the course of the study. Tumor volume was calculated using the formula: Length×Width×Height×0.52. Upon animal termination, tumors were carefully excised, trimmed and weighed. In addition, animals were weighed a minimum of once weekly. Representative samples of each tumor were preserved in sample cassette in formalin or OCT and flash frozen in liquid nitrogen.
Rabbits (30 total) were inoculated, either subcutaneously or intramuscularly with either a VX2 cell suspension (100 μl) or pieces of tumor (˜5-10 mm^3). The test group of 20 was treated with M200 at 10 mg/kg intravenously, twice weekly for 3 weeks. The control group of 10 animals was treated with a control IgG delivered by the same method as the M200. Tumor measurements, termination, weighing, tumor preservation and study duration were carried out according to the methods described above for the Pilot Study. In addition, one milliliter of blood was taken from an ear vessel on a weekly basis for serum analysis.

[9] = test system: rat α5β1 integrin; assay: species cross-reactivity of anti-α5β1 antibody; format: binding
[10] = test system: activated endothelial cells; details: regardless of the growth factor stimulus; cited from earlier work
[11] = minimum effective in vitro concentration

Row | Molecule | VX2 xenograft tumor growth versus control IgG [1] | NW231 xenograft tumor growth [2] | LOX xenograft tumor growth [3] | mean tumor volume [4] | recognition of mouse α5β1 integrin [5] | dose-limiting toxicities ([6]; doses up to 15 mg/kg) | tolerability in patients ([6]; doses up to 15 mg/kg) | adverse events, intensity ([6]; fatigue, nausea, constipation, headache and anorexia) | infusion reaction ([6]; the one patient who received 0.5 mg/kg) | T1/2 [7] | circulating level of M200 at which tumor growth was inhibited ([8]; rabbit VX2 model) | VX2 tumor growth ([8]; rabbit, 10 mg/kg intravenously, twice weekly for 3 weeks) | immunogenicity ([8]; rabbits, immune response as early as two weeks, eventually all animals seroconvert) | cross reaction with rat α5β1 integrin [9] | apoptosis of activated endothelial cells in vitro [10] | minimum effective in vitro concentration [11]
1 | B1 | did not correlate with a decreased rate of VX2 tumor growth | reproducibly inhibit | reproducibly inhibit | ~175 mm^3 | does not recognize | – | – | – | – | – | – | – | – | – | – | –
2 | B2 | did not correlate with a decreased rate of VX2 tumor growth | not found to reproducibly inhibit tumor growth | not found to reproducibly inhibit tumor growth | – | does not cross react | no dose-limiting M200 toxicities were observed | well tolerated | generally mild to moderate in intensity | fever after the first dose | 15.7 days | ≥ 50 µg/mL | able to inhibit tumor growth | immunogenic in rabbits | does not cross react | induce apoptosis | 2 to 3 µg/mL

Source: US7662384B2, “Use of anti-α5β1 antibodies to inhibit cancer cell proliferation” (Facet Biotech Corporation, priority 2004, dated 2010)
